Where no end group is shown, it is not given here.
T1: native human ESRRG protein (Estrogen-receptor related receptor gamma) (human, UniProt P62508 229-458, limits assumed)
T1 construct: the screened protein is called 'native human ESRRG protein'; also called ESSRG; ERRγ
T1 sequence (looked up): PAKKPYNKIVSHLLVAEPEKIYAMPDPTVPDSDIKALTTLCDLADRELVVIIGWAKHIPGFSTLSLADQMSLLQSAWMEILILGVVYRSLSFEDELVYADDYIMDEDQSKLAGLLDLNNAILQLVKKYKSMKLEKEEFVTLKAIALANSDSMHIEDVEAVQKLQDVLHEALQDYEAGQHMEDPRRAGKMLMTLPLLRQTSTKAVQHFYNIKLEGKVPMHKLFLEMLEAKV


Legend:
[1] = target: T1, native human ESRRG protein …; assay: peptide microarray, Iteration 1; bound ESRRG detected with fluorescent anti-ESRRG mAb
Description: (§1) Screening was carried out typically by hybridization of the protein (1 μg/mL) against the array for 1 h at 4° C.; detection of bound protein was carried out using a fluorescently labeled anti-ESRRG mAb. (Direct labeling of ESRRG and alternative detection strategies are equally valid).
Daughter candidate ligands and their new Tier 3 and/or Tier 1 based combinations were synthesized in situ on an addressable peptide microarray and screened against native human ESRRG protein in order to determine sequences that bind to this protein. Bound protein was detected by a fluorescently labeled anti-ESRRG mAb. […] Excess (100×) competing biological matrices (human serum, HSA/BSA or bacterial protein extract) were used as backgrounds to select for specific ligands to the protein. Other competing proteins can be added to background for specificity selection and directed evolution of ligands.

[2] = target: T1, native human ESRRG protein …; assay: peptide microarray, Iteration 2; bound ESRRG detected with fluorescent anti-ESRRG mAb
Description: as §1
Iterative sequence expansion and arraying of 10 highest binding ligands to ESRRG from Iteration 1 was carried out and the new peptide sequences were synthesized on an array and screened against the protein, as described above. In this step, the central 2 amino acids (core) in peptide sequences were maintained unchanged while outlying amino acids (2, 3, 6, and 7) were permuted (using Tier 1 and Tier 3 substitutions) in a ‘cipher’ or ‘combination’ lock approach.

[3] = target: T1, native human ESRRG protein …; assay: custom peptide microarray density chip

Binder | Sample B (Probe) Signal [1] | log2 (Sample B/Sample A) [1] | Sample B (Probe) Signal [2] | log2 (Sample B/Sample A) [2] | Kd [3] [nM]
Ac-AANMLLLL | 1190 fluorescence intensity units | 5.52 |  |  | 
Ac-AANYLLLL | 3760 fluorescence intensity units | 7.4 |  |  | 
Ac-AANYVLLL | 2200 fluorescence intensity units | 7.22 |  |  | 
Ac-AANMYLLL | 4010 fluorescence intensity units | 5.95 |  |  | 
Ac-AANYILLL | 2010 fluorescence intensity units | 7.19 |  |  | 
Ac-AANNYLLL | 3440 fluorescence intensity units | 6.78 |  |  | 
Ac-AANMSLLL | 1220 fluorescence intensity units | 6.16 |  |  | 
Ac-KSLLQQLL | 7390 fluorescence intensity units | 6.38 |  |  | 
Ac-RRSYPRGR |  |  | 1660 fluorescence intensity units | 1.9 | 
Ac-MYKLKQDN |  |  | 746 fluorescence intensity units | 2.02 | 
Ac-FVNFSLGI |  |  | 900 fluorescence intensity units | 1.92 | 
Ac-NSLSWHLL | 1040 fluorescence intensity units | 5.34 |  |  | 
Ac-WLLLKHGL |  |  | 895 fluorescence intensity units | 2.01 | 
Ac-NIKVHANN | 863 fluorescence intensity units | 6.58 |  |  | 
Ac-LHLRYSQT | 961 fluorescence intensity units | 4.86 |  |  | 
Ac-IFLLQQDN |  |  | 1010 fluorescence intensity units | 2.08 | 
Ac-PGKGHFPI |  |  | 998 fluorescence intensity units | 1.94 | 
Ac-YFLLQQGP |  |  | 794 fluorescence intensity units | 1.97 | 
Ac-AFNMYLDE |  |  | 440 fluorescence intensity units | 1.93 | 
Ac-LHLKGSQT | 622 fluorescence intensity units | 6.48 |  |  | 
Ac-RLLHYGSY |  |  | 1200 fluorescence intensity units | 2.05 | 
Ac-RKALVGKY | 868 fluorescence intensity units | 4.95 |  |  | 
Ac-NNSWSLHL | 729 fluorescence intensity units | 4.95 |  |  | 
Ac-IKQNYNNS | 740 fluorescence intensity units | 4.97 |  |  | 
Ac-RKAIFGKY | 818 fluorescence intensity units | 5.11 |  |  | 
Ac-DRSYPRHT |  |  | 271 fluorescence intensity units | 1.98 | 

Binder | Sample B (Probe) Signal [1] | log2 (Sample B/Sample A) [1] | Sample B (Probe) Signal [2] | log2 (Sample B/Sample A) [2] | Kd [3] [nM]
Ac-HNNFSLEP |  |  | 441 fluorescence intensity units | 2.03 | 
Ac-ANNSLLLH | 1320 fluorescence intensity units | 6.51 |  |  | 
Ac-ANNVSLLH | 1820 fluorescence intensity units | 4.87 |  |  | 
Ac-ANNFLLLH | 1620 fluorescence intensity units | 5.13 |  |  | 
Ac-ANNLKLLH | 1670 fluorescence intensity units | 4.88 |  |  | 
Ac-ANNVLLLH | 2000 fluorescence intensity units | 4.92 |  |  | 
Ac-ANNSQLLH | 955 fluorescence intensity units | 9.9 |  |  | 
Ac-ANNILLLH | 1090 fluorescence intensity units | 6.34 |  |  | 
Ac-ANNIWLLH | 1010 fluorescence intensity units | 5.05 |  |  | 
Ac-ANNSWLLH | 1260 fluorescence intensity units | 5.97 |  |  | 
Ac-ANNLSLLH | 1220 fluorescence intensity units | 5.82 |  |  | 
Ac-ANNVKLLH | 1720 fluorescence intensity units | 5.04 |  |  | 
Ac-ANNSKLLH | 1010 fluorescence intensity units | 5.42 |  |  | 
Ac-ANNSSLLH | 1150 fluorescence intensity units | 7.29 |  |  | 
Ac-ANNIQLLH | 806 fluorescence intensity units | 8.57 |  |  | 
Ac-ANNLWLLH | 1610 fluorescence intensity units | 5.26 |  |  | 
Ac-ANNIRLLH |  |  |  |  | 18.9
Ac-ANNLQLLH | 1540 fluorescence intensity units | 5.03 |  |  | 
Ac-AIRGHLMG | 935 fluorescence intensity units | 5.63 |  |  | 
Ac-AIRVHLMG | 690 fluorescence intensity units | 5.87 |  |  | 
Ac-LLHLQKSQ | 745 fluorescence intensity units | 5.64 |  |  | 
Ac-WRSYPRRA |  |  | 2610 fluorescence intensity units | 2.07 | 
Ac-NSLLQHLL | 9740 fluorescence intensity units | 12 |  |  | 
Ac-NSLRQHLL | 3240 fluorescence intensity units | 6.08 |  |  | 
Ac-NSLRSHLL | 1670 fluorescence intensity units | 6.34 |  |  | 
